Reference: patent US20220281980A1 (Bristol-Myers Squibb, published 2022)

T1: recombinant soluble human MICA*008 antigen (human, UniProt Q29983 24-307)
T1 construct: also called huIMICA-his allele *008; recombinant soluble MICA (allele 8)
T1 chain: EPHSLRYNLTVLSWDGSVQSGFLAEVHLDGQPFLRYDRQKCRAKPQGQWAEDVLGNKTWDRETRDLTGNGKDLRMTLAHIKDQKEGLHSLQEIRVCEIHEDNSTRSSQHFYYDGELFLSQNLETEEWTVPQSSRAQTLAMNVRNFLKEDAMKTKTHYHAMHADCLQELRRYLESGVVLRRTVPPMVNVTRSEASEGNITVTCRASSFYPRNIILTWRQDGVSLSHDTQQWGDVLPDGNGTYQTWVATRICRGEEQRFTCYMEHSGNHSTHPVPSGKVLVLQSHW

T2: recombinant soluble human MICA*002 antigen (human, UniProt Q29983 24-307)
T2 construct: also called huIMICA-his allele *002
T2 chain: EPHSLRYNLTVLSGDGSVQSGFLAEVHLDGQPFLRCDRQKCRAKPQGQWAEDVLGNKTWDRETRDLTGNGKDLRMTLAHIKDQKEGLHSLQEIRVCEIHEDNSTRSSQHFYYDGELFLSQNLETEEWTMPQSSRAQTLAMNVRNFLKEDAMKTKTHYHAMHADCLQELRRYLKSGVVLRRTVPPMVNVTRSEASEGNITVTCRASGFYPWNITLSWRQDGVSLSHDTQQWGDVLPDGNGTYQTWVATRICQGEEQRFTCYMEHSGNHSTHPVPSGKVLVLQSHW

T3: recombinant soluble human MICA*004 antigen (human, UniProt Q29983 24-307)
T3 construct: also called huIMICA-his allele *004
T3 chain: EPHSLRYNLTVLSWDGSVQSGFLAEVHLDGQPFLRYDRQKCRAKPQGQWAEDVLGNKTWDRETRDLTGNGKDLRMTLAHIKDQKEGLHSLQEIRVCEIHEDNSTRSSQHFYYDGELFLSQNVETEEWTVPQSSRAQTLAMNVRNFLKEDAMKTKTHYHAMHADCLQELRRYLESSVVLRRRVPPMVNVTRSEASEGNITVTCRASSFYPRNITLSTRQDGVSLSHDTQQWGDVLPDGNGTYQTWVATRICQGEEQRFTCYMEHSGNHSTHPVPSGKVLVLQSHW

T4: recombinant soluble human MICA*009 antigen (human, UniProt Q29983 24-307)
T4 construct: also called huIMICA-his allele *009
T4 chain: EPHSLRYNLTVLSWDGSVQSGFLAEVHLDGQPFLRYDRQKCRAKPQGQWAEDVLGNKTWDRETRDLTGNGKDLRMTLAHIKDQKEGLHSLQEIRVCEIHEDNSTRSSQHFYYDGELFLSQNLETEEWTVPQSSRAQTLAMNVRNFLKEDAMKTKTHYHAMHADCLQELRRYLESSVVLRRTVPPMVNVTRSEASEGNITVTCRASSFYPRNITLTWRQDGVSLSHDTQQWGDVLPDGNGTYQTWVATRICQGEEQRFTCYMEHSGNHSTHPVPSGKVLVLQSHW


What was measured:
[1] = molecular target: T1, recombinant soluble human MICA*008 …; assay: BLI (Octet) sandwich binning on soluble MICA allele 8, row antibody captured; competitor (second antibody): MICA.36
Description: (§1) The binning experiments were performed on an Octet HTX instrument at 25° C. in HEPES buffered saline (10 mM HEPES pH 7.4, 150 mM NaCl, 0.05% v/v surfactant P20, and 1 mg/mL BSA). Anti-MICA/B antibodies and NKG2D-mFc were captured on anti-Fc tips and remaining capture sites were blocked with an excess of negative control IgG. Recombinant soluble MICA (allele 8) was bound and subsequent binding (“sandwiching”) of anti-MICA/B antibodies was tested.

[2] = molecular target: T1, recombinant soluble human MICA*008 …; assay: BLI (Octet) sandwich binning on soluble MICA allele 8, row antibody captured; competitor (second antibody): MICA.40
Description: as §1

[3] = molecular target: T2, recombinant soluble human MICA*002 …; assay: SPR (Biacore 3000), antibody captured on Protein G chip, huMICA-his analyte
Description: (§2) Kinetics and affinity of anti-MICA/B antibodies MICA.2, 19G6, 16A5, and 71C2 towards human MICA alleles (huIMICA-his allele *002, *004, *008, and *009) were also determined on a BIACORE 3000® instrument using the following conditions: [0571] Running Buffer: HES-EP running buffer [0572] Chip: CM5 Protein G Chip Fc1: Blank. Fc2-4: ˜200Rus [0573] Ab: 5 ug/mL, 10 uL @ 10 uL/min [0574] Ag binding: 5 min association, 7 min dissociation @ 25 uL/min, [0575] Regeneration: Glycine 1.7, 10 uL @ 100 uL/min followed by 60s wash by HES-EP

[4] = molecular target: T3, recombinant soluble human MICA*004 …; assay: as above
Description: as §2

[5] = molecular target: T4, recombinant soluble human MICA*009 …; assay: as above
Description: as §2

[6] = molecular target: T1, recombinant soluble human MICA*008 …; assay: as above
Description: as §2

[7] = molecular target: T3, recombinant soluble human MICA*004 …; assay: SPR (Biacore 3000), antibody captured on Protein G chip, huMICA-his analyte; power of ten not given
Description: as §2

[8] = molecular target: T1, recombinant soluble human MICA*008 …; assay: BLI (Octet) sandwich binning on soluble MICA allele 8, row antibody captured; competitor (second antibody): MICA.2
Description: as §1

[9] = molecular target: T1, recombinant soluble human MICA*008 …; assay: BLI (Octet) sandwich binning on soluble MICA allele 8, row antibody captured; competitor (second antibody): MICA.39
Description: as §1

Row | Binder | simultaneous binding (0 = no, 1 = yes) [1] | simultaneous binding (0 = no, 1 = yes) [2] | Kd [3] | Kd [4] | Kd [5] | Kd [6] | koff [7] | simultaneous binding (0 = no, 1 = yes) [8] | simultaneous binding (0 = no, 1 = yes) [9]
1 | 24G11 (antibody, V domains shown, also called MICA.54; 24G11 (MICA.54)) VH: EVQLVQSGAEVKKPGESLKISCKGSGYSFTNYWIGWVRQMPGKGLEWLGIIHPGDSYTRYSPSFQGQVTISADKSISTAYLQWSSLKASDTAIYYCAREGIAATPFDYWGQGTLVTVSS VL: EIVLTQSPATLSLSPGERATLSCRASQSVSSYLAWFQQKPGQAPRLLIYDASNRATGIPARFSGSGSGTDFTLTISSLEPEDFAVYYCQQRSNWPPTFGQGTKVEIK | 0 | 1 | – | – | – | – | – | 1 | 1
2 | 19G6 (antibody, V domains shown, Hybridoma antibody from human IgG transgenic mice, parent of MICA.36; also called 19G6 mAb; hybridoma 19G6) VH: QVQLVESGGGVVQPGRSLRLSCAASGFTFSNYAMHWVRQAPGEGLEWVALIWYDGSNKFYGDSVKGRFTISRDNSKNTLYLQMNSLSAEDTAVYYCAREGSGHYWGQGTLVTVSS VL: AIQLTQSPSSLSASVGDRVTITCRASQGISSALAWYQQKPGKVPKSLIYDASSLESGVPSRFSGSGSGTDFTLTISSLQPEDFATYYCQQFNSYPITFGQGTRLEIK | – | – | 0.219 µM | 0.00978 µM | 0.0137 µM | 0.00523 µM | 2.28 s⁻¹ | – | –

The next lines start with the values.

Row | simultaneous binding (0 = no, 1 = yes) [1] | simultaneous binding (0 = no, 1 = yes) [2] | Kd [3] | Kd [4] | Kd [5] | Kd [6] | koff [7] | simultaneous binding (0 = no, 1 = yes) [8] | simultaneous binding (0 = no, 1 = yes) [9] | Binder
3 | 1 | 0 | 0.0275 µM | 0.0546 µM | 0.0615 µM | 0.0405 µM | 0.0284 s⁻¹ | 0 | 0 | MICA.2 (antibody, human IgG1, kappa, V domains shown, 3F5 variable regions on human IgG1f and human kappa constant regions, made in CHO-S cells; also called 3F5; recombinant antibody of 3F5) VH: EVQLVESGGGLVQPGGSLRLSCAASGFTFSTYSMNWVRQAPGKGLEWVSYISYRSRTIYYADSVKGRFTISRDNARNSLYLQMNSLRDEDTAVYYCARWGYGSGGFDYWGQGTLVTVSS VL: not shown
4 | – | – | 3.01 µM | 0.262 µM | 1.4 µM | 0.0399 µM | 0.0303 s⁻¹ | – | – | 71C2 (antibody, V domains shown, Hybridoma antibody) VH: EVQLVESGGGLVQPGRSLRLSCAASGFTFNNYAMHWVRQAPGKGLEWVSGITWNSDSIGYADSVKGRFTISRDNAKNSLYLQMNSLRAEDTALYYCAKDSVLLWFGGMDVWGQGTTVTVSS VL: not shown
5 | 0 | 1 | – | – | – | – | – | 1 | 1 | MICA.36 (antibody, V domains shown, it says that the name implies no specific constant region; Radioiodinated in the Scatchard assay; also called MICA.36 antibody) VH: QVQLVESGGGVVQPGRSLRLSCAASGFTFSNYAMHWVRQAPGEGLEWVALIWYDGSNKFYGDSVKGRFTISRDNSKNTLYLQMNSLSAEDTAVYYCAREGSGHYWGQGTLVTVSS VL: AIQLTQSPSSLSASVGDRVTITCRASQGISSALAWYQQKPGKVPKSLIYDASSLESGVPSRFSGSGSGTDFTLTISSLQPEDFATYYCQQFNSYPITFGQGTRLEIK
